Results on one molecule are retold here after patent US20200291128A1 (ABEXXA BIOLOGICS, published 2020).

The assay deals with T1, HLA-E*0103 (recombinant, refolded with peptide into monomer complexes).
T1 construct: The paragraph names only the allele
Put plainly: peptide binding and peptide/HLA-E refold into monomer complexes.

As for YLLPAIVHI [peptide YLLPAIVHI from the protein RNA Helicase], the binding result is listed as “binds”.
